Data on 4 sequences can be found in paper PMC7133447.

Series [1] concerns the target transferrin receptor (TfR) on bEnd.3 cells (mouse) (UniProt Q62351). As to the kind of experiment: flow cytometry (bEnd.3 cells). Particulars: Live-cell flow cytometry, 5e5 cells, 0-400 nM aptamer, PBS with 10% FCS, 0.1 mg/mL tRNA, 0.1 mg/mL BSA, 60 min, 37 C, aptamer folded in PBS with 5 mM MgCl2.
Series [2] concerns the target T1, epithelial cell adhesion molecule (EpCAM) on MDA-MB-231 cells (human) (UniProt P16422).
T1 sequence: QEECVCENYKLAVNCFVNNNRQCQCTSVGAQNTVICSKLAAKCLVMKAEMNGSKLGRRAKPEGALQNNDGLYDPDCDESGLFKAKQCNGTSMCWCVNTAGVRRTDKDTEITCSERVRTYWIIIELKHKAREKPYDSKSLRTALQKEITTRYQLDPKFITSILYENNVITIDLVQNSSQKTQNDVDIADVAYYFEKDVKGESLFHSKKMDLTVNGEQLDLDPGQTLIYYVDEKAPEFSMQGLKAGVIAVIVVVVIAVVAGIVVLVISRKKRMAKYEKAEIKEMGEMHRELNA
In words: flow cytometry (MDA-MB-231 cells). Particulars: Live-cell flow cytometry, 5e5 cells, 0-400 nM aptamer, PBS with 10% FCS, 0.1 mg/mL tRNA, 0.1 mg/mL BSA, 60 min, 37 C, aptamer folded in PBS with 5 mM MgCl2.

Series [3] deals with transferrin receptor (TfR) / EpCAM on 4T1 cells (mouse) (UniProt Q62351). As to the kind of experiment: flow cytometry (4T1 cells). Particulars: Live-cell flow cytometry, 5e5 cells, 0-400 nM aptamer, PBS with 10% FCS, 0.1 mg/mL tRNA, 0.1 mg/mL BSA, 60 min, 37 C; aptamer folded in PBS with 5 mM MgCl2. On the technique in general: A flow cytometer gives signals particle by particle.

[4] abbreviates: doxorubicin intercalated (non-covalent, about 2-3 per aptamer).

Sequence of transferrin receptor (TfR) on bEnd.3 cells (mouse) (Q62351 whole entry): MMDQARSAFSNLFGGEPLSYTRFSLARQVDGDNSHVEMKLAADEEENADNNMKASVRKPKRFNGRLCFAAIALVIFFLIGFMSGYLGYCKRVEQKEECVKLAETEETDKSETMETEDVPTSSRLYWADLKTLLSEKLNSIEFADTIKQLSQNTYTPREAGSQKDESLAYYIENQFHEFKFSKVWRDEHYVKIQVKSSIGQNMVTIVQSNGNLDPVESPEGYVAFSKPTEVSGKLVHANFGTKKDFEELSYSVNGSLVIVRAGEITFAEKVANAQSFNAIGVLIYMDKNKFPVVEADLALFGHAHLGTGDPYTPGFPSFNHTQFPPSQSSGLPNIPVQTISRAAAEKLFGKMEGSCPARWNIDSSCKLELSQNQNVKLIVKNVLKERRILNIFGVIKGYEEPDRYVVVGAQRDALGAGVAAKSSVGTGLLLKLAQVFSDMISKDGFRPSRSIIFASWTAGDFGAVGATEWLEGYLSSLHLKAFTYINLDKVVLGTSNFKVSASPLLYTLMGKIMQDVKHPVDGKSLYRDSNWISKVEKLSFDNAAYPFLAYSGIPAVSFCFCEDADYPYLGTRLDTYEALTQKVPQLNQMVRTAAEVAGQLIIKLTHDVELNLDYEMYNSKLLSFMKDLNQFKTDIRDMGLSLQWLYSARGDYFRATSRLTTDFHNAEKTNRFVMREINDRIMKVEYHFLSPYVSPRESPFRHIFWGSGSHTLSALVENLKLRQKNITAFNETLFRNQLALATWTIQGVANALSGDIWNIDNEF
Sequence of transferrin receptor (TfR) / EpCAM on 4T1 cells (mouse) (Q62351 whole entry): as above

For orientation: Kd means a measure of binding affinity in units of concentration. Regarding “GCGCGGTACCGCGCTAACGGAGGTTGCGTCCGT [TEPP-DOX]”, the Kd was 119 nM in series [1] (setting [4]) and 536 nM in series [2] (setting [4]).
Turning to “GCGCGTGCACGCGCTAACGGATTCCTTTTCCGT [TENN-DOX]”, the Kd is 865 nM in series [1] (setting [4]) and over 10000 nM in series [2] (setting [4]).
Take “GCGCGTGCACGCGCTAACGGATTCCTTTTCCGT [TENN]”: the Kd in series [1] (cited from earlier work) and in series [2] (cited from earlier work) was over 10000 nM each time.
On to “GCGCGGTACCGCGCTAACGGAGGTTGCGTCCGT [TEPP]”, for which the values for the Kd in series [1] (cited from earlier work), in series [2] (cited from earlier work) and in series [3] were 110 nM, 85.6 nM and 27.6 nM, respectively.
